Measurements from patent US20170298395A1, “AUTOTROPHIC HYDROGEN BACTERIA AND USES THEREOF” (Ohio State Innovation Foundation, priority 2011, published 2017).
Where two headings read alike, the source gives them in different places.

B1: G205D/R283H (protein)
chain: MSSFLRALTLRQLQIFVTVARHASFVRAAEELHLTQPAVSMQVKQLESVVGMALFERVKGQLTLTEPGDRLLHHASRILGEVKDAEEGLQAVKDVEQGSITIGLISTSKYFAPKLLAGFTALHPGVDLRIAEGNRETLLRLLQDNAIDLALMGRPPRELDAVSEPIAAHPHVLVASPRHPLHDAKGFDLQELRHETFLLREPGSDTRTVAEYMFRDHLFTPAKVITLGSNETIKQAVMAGMGISLLSLHTLGLELRTGEIGLLDVAGTPIERIWHVAHMSSKHLSPASESCRAYLLEHTAEFLGREYGGLMPGRRVA
B2: E87K (protein)
chain: MSSFLRALTLRQLQIFVTVARHASFVRAAEELHLTQPAVSMQVKQLESVVGMALFERVKGQLTLTEPGDRLLHHASRILGEVKDAEKGLQAVKDVEQGSITIGLISTSKYFAPKLLAGFTALHPGVDLRIAEGNRETLLRLLQDNAIDLALMGRPPRELDAVSEPIAAHPHVLVASPRHPLHDAKGFDLQELRHETFLLREPGSGTRTVAEYMFRDHLFTPAKVITLGSNETIKQAVMAGMGISLLSLHTLGLELRTGEIGLLDVAGTPIERIWHVAHMSSKRLSPASESCRAYLLEHTAEFLGREYGGLMPGRRVA
B3: G125D (protein)
chain: MSSFLRALTLRQLQIFVTVARHASFVRAAEELHLTQPAVSMQVKQLESVVGMALFERVKGQLTLTEPGDRLLHHASRILGEVKDAEEGLQAVKDVEQGSITIGLISTSKYFAPKLLAGFTALHPDVDLRIAEGNRETLLRLLQDNAIDLALMGRPPRELDAVSEPIAAHPHVLVASPRHPLHDAKGFDLQELRHETFLLREPGSGTRTVAEYMFRDHLFTPAKVITLGSNETIKQAVMAGMGISLLSLHTLGLELRTGEIGLLDVAGTPIERIWHVAHMSSKRLSPASESCRAYLLEHTAEFLGREYGGLMPGRRVA
B4: G125S/V265M (protein)
chain: MSSFLRALTLRQLQIFVTVARHASFVRAAEELHLTQPAVSMQVKQLESVVGMALFERVKGQLTLTEPGDRLLHHASRILGEVKDAEEGLQAVKDVEQGSITIGLISTSKYFAPKLLAGFTALHPSVDLRIAEGNRETLLRLLQDNAIDLALMGRPPRELDAVSEPIAAHPHVLVASPRHPLHDAKGFDLQELRHETFLLREPGSGTRTVAEYMFRDHLFTPAKVITLGSNETIKQAVMAGMGISLLSLHTLGLELRTGEIGLLDMAGTPIERIWHVAHMSSKRLSPASESCRAYLLEHTAEFLGREYGGLMPGRRVA

What was measured:
[1] = tested on: cbb promoter; type: cell-based, Ralstonia eutropha; conditions: for Chemoheterotrophic β-galactosidase activity: Table 12, chemoheterotrophic (repressed) growth
[2] = tested on: RubisCO; type: cell-based, Ralstonia eutropha; conditions: for level of RubisCO relative to wild-type CbbR: CH growth conditions; for Chemoheterotrophic RubisCO activity: Table 12, chemoheterotrophic (repressed) growth
[3] = Table 12, chemoautotrophic (induced) growth
[4] = Table 9, chemoautotrophic growth conditions

Row | Molecule | Chemoautotrophic β-galactosidase activity [1, 3] | Chemoheterotrophic β-galactosidase activity [1] | level of RubisCO relative to wild-type CbbR [2] [fold] | Chemoautotrophic RubisCO activity [2, 3] | Chemoheterotrophic RubisCO activity [2] | Chemoautotrophic β-galactosidase activity [1, 4] | Chemoautotrophic RubisCO activity [2, 4]
1 | B1 | 4480 nmol/min/mg of protein | 2311 nmol/min/mg of protein | 530 | 115 nmol/min/mg of protein | 53 nmol/min/mg of protein | – | –
2 | B2 | 5515 nmol/min/mg of protein | 1597 nmol/min/mg of protein | 330 | 305 nmol/min/mg of protein | 33 nmol/min/mg of protein | – | –
3 | B3 | 6777 nmol/min/mg of protein | 108 nmol/min/mg of protein | – | 298 nmol/min/mg of protein | 3 nmol/min/mg of protein | 6777 nmol/min/mg of protein | 162 nmol/min/mg of protein
4 | B4 | 6770 nmol/min/mg of protein | 53 nmol/min/mg of protein | – | 259 nmol/min/mg of protein | 2 nmol/min/mg of protein | 6770 nmol/min/mg of protein | 162 nmol/min/mg of protein
